Paper PMC12086504 (Traffic (Copenhagen, Denmark), 2025)

T1: BicD^CC2‐CC3 (amino acids 318–782) (Drosophila, UniProt P16568 318-782, biotin on the biotin tag)
T1 sequence (looked up): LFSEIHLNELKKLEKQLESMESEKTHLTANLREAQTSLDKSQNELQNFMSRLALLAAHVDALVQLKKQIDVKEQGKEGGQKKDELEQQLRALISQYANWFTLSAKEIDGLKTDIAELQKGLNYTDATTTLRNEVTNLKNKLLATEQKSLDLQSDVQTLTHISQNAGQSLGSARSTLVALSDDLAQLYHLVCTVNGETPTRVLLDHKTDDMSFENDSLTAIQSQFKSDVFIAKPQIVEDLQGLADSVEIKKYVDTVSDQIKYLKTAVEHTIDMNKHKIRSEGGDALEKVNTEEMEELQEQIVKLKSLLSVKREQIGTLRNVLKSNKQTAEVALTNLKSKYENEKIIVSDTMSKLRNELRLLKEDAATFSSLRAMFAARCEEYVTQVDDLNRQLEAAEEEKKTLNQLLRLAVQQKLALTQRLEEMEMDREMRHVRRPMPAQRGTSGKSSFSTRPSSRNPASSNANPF


How the values were obtained:
[1] = biological target: T1, BicD^CC2‐CC3 (amino acids 318–782); experiment: interferometric scattering mass spectrometry
[2] = biological target: T1, BicD^CC2‐CC3 (amino acids 318–782); experiment: single-molecule TIRF microscopy

| Binder | stoichiometry N [1] [kinesins per BicD^CC2-CC3] | percent of Qdots in complexes with BicD^CC2-CC3 [2] [%] |
| --- | --- | --- |
| Drosophila kinesin^ΔH2 (kinesin heavy chain lacking the hinge 2 region, amino acids K521‐D641) (natural protein, Drosophila melanogaster, UniProt P17210 1-975, looked up, biotin on the biotin tag) MSAEREIPAEDSIKVVCRFRPLNDSEEKAGSKFVVKFPNNVEENCISIAGKVYLFDKVFKPNASQEKVYNEAAKSIVTDVLAGYNGTIFAYGQTSSGKTHTMEGVIGDSVKQGIIPRIVNDIFNHIYAMEVNLEFHIKVSYYEIYMDKIRDLLDVSKVNLSVHEDKNRVPYVKGATERFVSSPEDVFEVIEEGKSNRHIAVTNMNEHSSRSHSVFLINVKQENLENQKKLSGKLYLVDLAGSEKVSKTGAEGTVLDEAKNINKSLSALGNVISALADGNKTHIPYRDSKLTRILQESLGGNARTTIVICCSPASFNESETKSTLDFGRRAKTVKNVVCVNEELTAEEWKRRYEKEKEKNARLKGKVEKLEIELARWRAGETVKAEEQINMEDLMEASTPNLEVEAAQTAAAEAALAAQRTALANMSASVAVNEQARLATECERLYQQLDDKDEEINQQSQYAEQLKEQVMEQEELIANARREYETLQSEMARIQQENESAKEEVKEVLQALEELAVNYDQSNKKISEYEKDLGEYRLLISQHEARMKSLQESMREAENKKRTLEEQIDSLREECAKLKAAEHVSAVNAEEKQRAEELRSMFDSQMDELREAHTRQVSELRDEIAAKQHEMDEMKDVHQKLLLAHQQMTADYEKVRQEDAEKSSELQNIILTNERREQARKDLKGLEDTVAKELQTLHNLRKLFVQDLQQRIRKNVVNEESEEDGGSLAQKQKISFLENNLDQLTKVHKQLVRDNADLRCELPKLEKRLRCTMERVKALETALKEAKEGAMRDRKRYQYEVDRIKEAVRQKHLGRRGPQAQIAKPIRSGQGAIAIRGGGAVGGPSPLAQVNPVNS | 2 | 21.3 |
| kinesin^ΔH2 with added kinesin light chain (KLC) (complex, biotin on the biotin tag) heavy: MSAEREIPAEDSIKVVCRFRPLNDSEEKAGSKFVVKFPNNVEENCISIAGKVYLFDKVFKPNASQEKVYNEAAKSIVTDVLAGYNGTIFAYGQTSSGKTHTMEGVIGDSVKQGIIPRIVNDIFNHIYAMEVNLEFHIKVSYYEIYMDKIRDLLDVSKVNLSVHEDKNRVPYVKGATERFVSSPEDVFEVIEEGKSNRHIAVTNMNEHSSRSHSVFLINVKQENLENQKKLSGKLYLVDLAGSEKVSKTGAEGTVLDEAKNINKSLSALGNVISALADGNKTHIPYRDSKLTRILQESLGGNARTTIVICCSPASFNESETKSTLDFGRRAKTVKNVVCVNEELTAEEWKRRYEKEKEKNARLKGKVEKLEIELARWRAGETVKAEEQINMEDLMEASTPNLEVEAAQTAAAEAALAAQRTALANMSASVAVNEQARLATECERLYQQLDDKDEEINQQSQYAEQLKEQVMEQEELIANARREYETLQSEMARIQQENESAKEEVKEVLQALEELAVNYDQSNKKISEYEKDLGEYRLLISQHEARMKSLQESMREAENKKRTLEEQIDSLREECAKLKAAEHVSAVNAEEKQRAEELRSMFDSQMDELREAHTRQVSELRDEIAAKQHEMDEMKDVHQKLLLAHQQMTADYEKVRQEDAEKSSELQNIILTNERREQARKDLKGLEDTVAKELQTLHNLRKLFVQDLQQRIRKNVVNEESEEDGGSLAQKQKISFLENNLDQLTKVHKQLVRDNADLRCELPKLEKRLRCTMERVKALETALKEAKEGAMRDRKRYQYEVDRIKEAVRQKHLGRRGPQAQIAKPIRSGQGAIAIRGGGAVGGPSPLAQVNPVNS light: MTQMSQDEIITNTKTVLQGLEALRVEHVSIMNGIAEVQKDNEKSDMLRKNIENIELGLSEAQVMMALTSHLQNIEAEKHKLKTQVRRLHQENAWLRDELANTQQKFQASEQLVAQLEEEKKHLEFMASVKKYDENQEQDDACDKSRTDPVVELFPDEENEDRHNMSPTPPSQFANQTSGYEIPARLRTLHNLVIQYASQGRYEVAVPLCKQALEDLERTSGHDHPDVATMLNILALVYRDQNKYKEAANLLNDALSIRGKTLGENHPAVAATLNNLAVLYGKRGKYKDAEPLCKRALEIREKVLGKDHPDVAKQLNNLALLCQNQGKYDEVEKYYQRALDIYESKLGPDDPNVAKTKNNLAGCYLKQGRYTEAEILYKQVLTRAHEREFGAIDSKNKPIWQVAEEREEHKFDNRENTPYGEYGGWHKAAKVDSPTVTTTLKNLGALYRRQGMFEAAETLEDCAMRSKKEAYDLAKQTKLSQLLTSNEKRRSKAIKEDLDFSEEKNAKP |  | 6.6 |
| homodimeric Drosophila kinesin‐1 (kinesin heavy chain, no bound light chains) (natural protein, Drosophila melanogaster, UniProt P17210 1-975, looked up, biotin on the biotin tag (biotinylation occurs during expression in Sf9 cells)) MSAEREIPAEDSIKVVCRFRPLNDSEEKAGSKFVVKFPNNVEENCISIAGKVYLFDKVFKPNASQEKVYNEAAKSIVTDVLAGYNGTIFAYGQTSSGKTHTMEGVIGDSVKQGIIPRIVNDIFNHIYAMEVNLEFHIKVSYYEIYMDKIRDLLDVSKVNLSVHEDKNRVPYVKGATERFVSSPEDVFEVIEEGKSNRHIAVTNMNEHSSRSHSVFLINVKQENLENQKKLSGKLYLVDLAGSEKVSKTGAEGTVLDEAKNINKSLSALGNVISALADGNKTHIPYRDSKLTRILQESLGGNARTTIVICCSPASFNESETKSTLDFGRRAKTVKNVVCVNEELTAEEWKRRYEKEKEKNARLKGKVEKLEIELARWRAGETVKAEEQINMEDLMEASTPNLEVEAAQTAAAEAALAAQRTALANMSASVAVNEQARLATECERLYQQLDDKDEEINQQSQYAEQLKEQVMEQEELIANARREYETLQSEMARIQQENESAKEEVKEVLQALEELAVNYDQKSQEIDNKNKDIDALNEELQQKQSVFNAASTELQQLKDMSSHQKKRITEMLTNLLRDLGEVGQAIAPGESSIDLKMSALAGTDASKVEEDFTMARLFISKMKTEAKNIAQRCSNMETQQADSNKKISEYEKDLGEYRLLISQHEARMKSLQESMREAENKKRTLEEQIDSLREECAKLKAAEHVSAVNAEEKQRAEELRSMFDSQMDELREAHTRQVSELRDEIAAKQHEMDEMKDVHQKLLLAHQQMTADYEKVRQEDAEKSSELQNIILTNERREQARKDLKGLEDTVAKELQTLHNLRKLFVQDLQQRIRKNVVNEESEEDGGSLAQKQKISFLENNLDQLTKVHKQLVRDNADLRCELPKLEKRLRCTMERVKALETALKEAKEGAMRDRKRYQYEVDRIKEAVRQKHLGRRGPQAQIAKPIRSGQGAIAIRGGGAVGGPSPLAQVNPVNS |  | 16.4 |
| heterotetrameric kinesin^KLC (kinesin heavy chain with bound kinesin light chains) (complex, biotin on the biotin tag) heavy: MSAEREIPAEDSIKVVCRFRPLNDSEEKAGSKFVVKFPNNVEENCISIAGKVYLFDKVFKPNASQEKVYNEAAKSIVTDVLAGYNGTIFAYGQTSSGKTHTMEGVIGDSVKQGIIPRIVNDIFNHIYAMEVNLEFHIKVSYYEIYMDKIRDLLDVSKVNLSVHEDKNRVPYVKGATERFVSSPEDVFEVIEEGKSNRHIAVTNMNEHSSRSHSVFLINVKQENLENQKKLSGKLYLVDLAGSEKVSKTGAEGTVLDEAKNINKSLSALGNVISALADGNKTHIPYRDSKLTRILQESLGGNARTTIVICCSPASFNESETKSTLDFGRRAKTVKNVVCVNEELTAEEWKRRYEKEKEKNARLKGKVEKLEIELARWRAGETVKAEEQINMEDLMEASTPNLEVEAAQTAAAEAALAAQRTALANMSASVAVNEQARLATECERLYQQLDDKDEEINQQSQYAEQLKEQVMEQEELIANARREYETLQSEMARIQQENESAKEEVKEVLQALEELAVNYDQKSQEIDNKNKDIDALNEELQQKQSVFNAASTELQQLKDMSSHQKKRITEMLTNLLRDLGEVGQAIAPGESSIDLKMSALAGTDASKVEEDFTMARLFISKMKTEAKNIAQRCSNMETQQADSNKKISEYEKDLGEYRLLISQHEARMKSLQESMREAENKKRTLEEQIDSLREECAKLKAAEHVSAVNAEEKQRAEELRSMFDSQMDELREAHTRQVSELRDEIAAKQHEMDEMKDVHQKLLLAHQQMTADYEKVRQEDAEKSSELQNIILTNERREQARKDLKGLEDTVAKELQTLHNLRKLFVQDLQQRIRKNVVNEESEEDGGSLAQKQKISFLENNLDQLTKVHKQLVRDNADLRCELPKLEKRLRCTMERVKALETALKEAKEGAMRDRKRYQYEVDRIKEAVRQKHLGRRGPQAQIAKPIRSGQGAIAIRGGGAVGGPSPLAQVNPVNS light: MTQMSQDEIITNTKTVLQGLEALRVEHVSIMNGIAEVQKDNEKSDMLRKNIENIELGLSEAQVMMALTSHLQNIEAEKHKLKTQVRRLHQENAWLRDELANTQQKFQASEQLVAQLEEEKKHLEFMASVKKYDENQEQDDACDKSRTDPVVELFPDEENEDRHNMSPTPPSQFANQTSGYEIPARLRTLHNLVIQYASQGRYEVAVPLCKQALEDLERTSGHDHPDVATMLNILALVYRDQNKYKEAANLLNDALSIRGKTLGENHPAVAATLNNLAVLYGKRGKYKDAEPLCKRALEIREKVLGKDHPDVAKQLNNLALLCQNQGKYDEVEKYYQRALDIYESKLGPDDPNVAKTKNNLAGCYLKQGRYTEAEILYKQVLTRAHEREFGAIDSKNKPIWQVAEEREEHKFDNRENTPYGEYGGWHKAAKVDSPTVTTTLKNLGALYRRQGMFEAAETLEDCAMRSKKEAYDLAKQTKLSQLLTSNEKRRSKAIKEDLDFSEEKNAKP |  | 3.7 |
